Laboratory results: patent publication CN107042098A

Tests used:
[1] = molecular target: Myc-GST融合蛋白 (Myc标签与谷胱甘肽融合的蛋白); test: indirect ELISA, Myc-GST coated at 5 μg/mL, HRP anti-His secondary; heat test at 70℃
[2] = molecular target: Myc-GST融合蛋白 (Myc标签与谷胱甘肽融合的蛋白); test: indirect ELISA, Myc-GST coated at 5 μg/mL, HRP anti-His secondary; heat test at 80℃
[3] = molecular target: Myc-GST融合蛋白 (Myc标签与谷胱甘肽融合的蛋白); test: indirect ELISA, Myc-GST coated at 5 μg/mL, HRP anti-His secondary; heat test at 90℃

OD450 [1]: 1.4 OD450
OD450 [2]: 1.2 OD450
OD450 [3]: 1.1 OD450
B1: 抗c-Myc标签单域重链抗体 (anti-c-Myc tag single-domain heavy-chain antibody, SEQ ID NO.:1) (VHH, not shown: small tags and cut ends)
VHH: QLQLVESGGGLVQAGGSLRLSCAVSGFTFSANAMSWVRQAPGKGPEWVSSINRGGASAEYADSVKGRFTISRDDAKNTLYLQMNSLKPEDTALYYCARGNYRGSYFNGPRTYWGRGTQVTVSP
